B1: Serine acetyltransferase 3, mitochondrial (Arabidopsis thaliana (Mouse-ear cress)), Q39218 (parent)
chain: MLPVTSRRHFTMSLYMLRSSSPHINHHSFLLPSFVSSKFKHHTLSPPPSPPPPPPMAACIDTCRTGKPQISPRDSSKHHDDESGFRYMNYFRYPDRSSFNGTQTKTLHTRPLLEDLDRDAEVDDVWAKIREEAKSDIAKEPIVSAYYHASIVSQRSLEAALANTLSVKLSNLNLPSNTLFDLFSGVLQGNPDIVESVKLDLLAVKERDPACISYVHCFLHFKGFLACQAHRIAHELWTQDRKILALLIQNRVSEAFAVDFHPGAKIGTGILLDHATAIVIGETAVVGNNVSILHNVTLGGTGKQCGDRHPKIGDGVLIGAGTCILGNITIGEGAKIGAGSVVLKDVPPRTTAVGNPARLLGGKDNPKTHDKIPGLTMDQTSHISEWSDYVI

Variants of: B1
Conditions: with cyskm_arath OASC

| effect of a mutation on the interaction | Variant |
| --- | --- |
| increasing interaction | MLPVTSRRHFTMSLYMLRSSSPHINHHSFLLPSFVSSKFKHHTLSPPPSPPPPPPMAACIDTCRTGKPQISPRDSSKHHDDESGFRYMNYFRYPDRSSFNGTQTKTLHTRPLLEDLDRDAEVDDVWAKIREEAKSDIAKEPIVSAYYHASIVSQRSLEAALANTLSVKLSNLNLPSNTLFDLFSGVLQGNPDIVESVKLDLLAVKERDPACISYVHCFLHFKGFLACQAHRIAHELWTQDRKILALLIQNRVSEAFAVDFHPGAKIGTGILLDHATAIVIGETAVVGNNVSILHNVTLGGTGKQCGDRAPKIGDGVLIGAGTCILGNITIGEGAKIGAGSVVLKDVPPRTTAVGNPARLLGGKDNPKTHDKIPGLTMDQTSHISEWSDYVI [H309A] |
| disrupting interaction | MLPVTSRRHFTMSLYMLRSSSPHINHHSFLLPSFVSSKFKHHTLSPPPSPPPPPPMAACIDTCRTGKPQISPRDSSKHHDDESGFRYMNYFRYPDRSSFNGTQTKTLHTRPLLEDLDRDAEVDDVWAKIREEAKSDIAKEPIVSAYYHASIVSQRSLEAALANTLSVKLSNLNLPSNTLFDLFSGVLQGNPDIVESVKLDLLAVKERDPACISYVHCFLHFKGFLACQAHRIAHELWTQDRKILALLIQNRVSEAFAVDFHPGAKIGTGILLDHATAIVIGETAVVGNNVSILHNVTLGGTGKQCGDRHPKIGDGVLIGAGTCILGNITIGEGAKIGAGSVVLKDVPPRTTAAGNPARLLGGKDNPKTHDKIPGLTMDQTSHISEWSDYVI [V353A] |

Variants of: B1
Conditions: with cyskm_arath OASC
Remark: another data set of the same source

| effect of a mutation on the interaction | Variant |
| --- | --- |
| decreasing interaction | MLPVTSRRHFTMSLYMLRSSSPHINHHSFLLPSFVSSKFKHHTLSPPPSPPPPPPMAACIDTCRTGKPQISPRDSSKHHDDESGFRYMNYFRYPDRSSFNGTQTKTLHTRPLLEDLDRDAEVDDVWAKIREEAKSDIAKEPIVSAYYHASIVSQRSLEAALANTLSVKLSNLNLPSNTLFDLFSGVLQGNPDIVESVKLDLLAVKERDPACISYVHCFLHFKGFLACQAHRIAHELWTQDRKILALLIQNRVSEAFAVDFHPGAKIGTGILLDHATAIVIGATAVVGNNVSILHNVTLGGTGKQCGDRHPKIGDGVLIGAGTCILGNITIGEGAKIGAGSVVLKDVPPRTTAVGNPARLLGGKDNPKTHDKIPGLTMDQTSHISEWSDYVI [E282A] |
| decreasing interaction | MLPVTSRRHFTMSLYMLRSSSPHINHHSFLLPSFVSSKFKHHTLSPPPSPPPPPPMAACIDTCRTGKPQISPRDSSKHHDDESGFRYMNYFRYPDRSSFNGTQTKTLHTRPLLEDLDRDAEVDDVWAKIREEAKSDIAKEPIVSAYYHASIVSQRSLEAALANTLSVKLSNLNLPSNTLFDLFSGVLQGNPDIVESVKLDLLAVKERDPACISYVHCFLHFKGFLACQAHRIAHELWTQDRKILALLIQNRVSEAFAVDFHPGAKIGTGILLDHATAIVIGETAVVGNNVSILHNVTLGGTGKQCGDRHPKIGDGVLIGAGTCILGNITIGEGAKIGAGSVVLKDVPPRTTAEGNPARLLGGKDNPKTHDKIPGLTMDQTSHISEWSDYVI [V353E] |

Reference: IntAct's records for PubMed 11168407
